The values below come from US20130336893A1 (Sanofi, published 2013).

Experiment [1] concerns the target human glucagon receptor (human, UniProt P47871 26-477). Description: cell-based or functional assay.
Experiment [2] addresses human GLP-1 receptor (human, UniProt P43220 24-463). Description: cell-based or functional assay.

*1 amine or outer side, *2 acyl side, *3 side chain or, on linkers, in order; H or OH if unused. Where no end group is shown, it is not given here. [ ]: non-standard residue; d: D form. Cysteamide = C(CS[*:3])N[*:1]

human glucagon receptor, sequence (P47871 26-477): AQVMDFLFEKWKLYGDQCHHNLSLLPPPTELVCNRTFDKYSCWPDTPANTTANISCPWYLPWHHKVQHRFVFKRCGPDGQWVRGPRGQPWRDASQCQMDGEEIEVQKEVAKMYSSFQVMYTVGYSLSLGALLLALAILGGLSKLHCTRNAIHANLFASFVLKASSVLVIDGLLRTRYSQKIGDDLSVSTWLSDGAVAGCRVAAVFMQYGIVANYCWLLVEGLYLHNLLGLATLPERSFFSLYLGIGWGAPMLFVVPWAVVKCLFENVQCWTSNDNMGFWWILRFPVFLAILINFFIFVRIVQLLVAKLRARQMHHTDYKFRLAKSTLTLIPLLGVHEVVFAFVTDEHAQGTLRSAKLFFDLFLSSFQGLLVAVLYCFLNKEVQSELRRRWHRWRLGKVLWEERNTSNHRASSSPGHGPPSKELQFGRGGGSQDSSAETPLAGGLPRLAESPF

B1: SEQ ID NO: (35) (peptide)
peptide: H[dS]QGTFTSDLSKQMDSRRAQLFIEWLKNGGPSSGAPPPS-NH2
modifications: N-terminus assumed
SMILES: CC[C@H](C)[C@H](NC(=O)[C@H](Cc1ccccc1)NC(=O)[C@H](CC(C)C)NC(=O)[C@H](CCC(N)=O)NC(=O)[C@H](C)NC(=O)[C@H](CCCNC(=N)N)NC(=O)[C@H](CCCNC(=N)N)NC(=O)[C@H](CO)NC(=O)[C@H](CC(=O)O)NC(=O)[C@H](CCSC)NC(=O)[C@H](CCC(N)=O)NC(=O)[C@H](CCCCN)NC(=O)[C@H](CO)NC(=O)[C@H](CC(C)C)NC(=O)[C@H](CC(=O)O)NC(=O)[C@H](CO)NC(=O)[C@@H](NC(=O)[C@H](Cc1ccccc1)NC(=O)[C@@H](NC(=O)CNC(=O)[C@H](CCC(N)=O)NC(=O)[C@@H](CO)NC(=O)[C@@H](N)Cc1c[nH]cn1)[C@@H](C)O)[C@@H](C)O)C(=O)N[C@@H](CCC(=O)O)C(=O)N[C@@H](Cc1c[nH]c2ccccc12)C(=O)N[C@@H](CC(C)C)C(=O)N[C@@H](CCCCN)C(=O)N[C@@H](CC(N)=O)C(=O)NCC(=O)NCC(=O)N1CCC[C@H]1C(=O)N[C@@H](CO)C(=O)N[C@@H](CO)C(=O)NCC(=O)N[C@@H](C)C(=O)N1CCC[C@H]1C(=O)N1CCC[C@H]1C(=O)N1CCC[C@H]1C(=O)N[C@@H](CO)C(N)=O
For the molecule B1, in experiment [1], the “EC50 hGlucagonR (cAMP formation)” value amounted to 0.043 nM. Also, the “EC50 hGLP-1R (cAMP formation)” value in experiment [2] is 0.0894 nM.

B2: SEQ ID NO: (31) (peptide)
peptide: H[dS]QGTFTSDLSKQMDSRRARDFIEWLKNGGPSSGAPPPS-NH2
modifications: N-terminus assumed
SMILES: CC[C@H](C)[C@H](NC(=O)[C@H](Cc1ccccc1)NC(=O)[C@H](CC(=O)O)NC(=O)[C@H](CCCNC(=N)N)NC(=O)[C@H](C)NC(=O)[C@H](CCCNC(=N)N)NC(=O)[C@H](CCCNC(=N)N)NC(=O)[C@H](CO)NC(=O)[C@H](CC(=O)O)NC(=O)[C@H](CCSC)NC(=O)[C@H](CCC(N)=O)NC(=O)[C@H](CCCCN)NC(=O)[C@H](CO)NC(=O)[C@H](CC(C)C)NC(=O)[C@H](CC(=O)O)NC(=O)[C@H](CO)NC(=O)[C@@H](NC(=O)[C@H](Cc1ccccc1)NC(=O)[C@@H](NC(=O)CNC(=O)[C@H](CCC(N)=O)NC(=O)[C@@H](CO)NC(=O)[C@@H](N)Cc1c[nH]cn1)[C@@H](C)O)[C@@H](C)O)C(=O)N[C@@H](CCC(=O)O)C(=O)N[C@@H](Cc1c[nH]c2ccccc12)C(=O)N[C@@H](CC(C)C)C(=O)N[C@@H](CCCCN)C(=O)N[C@@H](CC(N)=O)C(=O)NCC(=O)NCC(=O)N1CCC[C@H]1C(=O)N[C@@H](CO)C(=O)N[C@@H](CO)C(=O)NCC(=O)N[C@@H](C)C(=O)N1CCC[C@H]1C(=O)N1CCC[C@H]1C(=O)N1CCC[C@H]1C(=O)N[C@@H](CO)C(N)=O
On to B2, for which the “EC50 hGlucagonR (cAMP formation)” value in experiment [1] was determined as 0.132 nM. In experiment [2], the “EC50 hGLP-1R (cAMP formation)” value worked out at 0.0109 nM.

B3: SEQ ID NO: (43) (peptide)
peptide: H[dS]QGTFTSDLSKQFDSRRAQDFIEWLKNGGPSSGAPPPS-NH2
modifications: N-terminus assumed
SMILES: CC[C@H](C)[C@H](NC(=O)[C@H](Cc1ccccc1)NC(=O)[C@H](CC(=O)O)NC(=O)[C@H](CCC(N)=O)NC(=O)[C@H](C)NC(=O)[C@H](CCCNC(=N)N)NC(=O)[C@H](CCCNC(=N)N)NC(=O)[C@H](CO)NC(=O)[C@H](CC(=O)O)NC(=O)[C@H](Cc1ccccc1)NC(=O)[C@H](CCC(N)=O)NC(=O)[C@H](CCCCN)NC(=O)[C@H](CO)NC(=O)[C@H](CC(C)C)NC(=O)[C@H](CC(=O)O)NC(=O)[C@H](CO)NC(=O)[C@@H](NC(=O)[C@H](Cc1ccccc1)NC(=O)[C@@H](NC(=O)CNC(=O)[C@H](CCC(N)=O)NC(=O)[C@@H](CO)NC(=O)[C@@H](N)Cc1c[nH]cn1)[C@@H](C)O)[C@@H](C)O)C(=O)N[C@@H](CCC(=O)O)C(=O)N[C@@H](Cc1c[nH]c2ccccc12)C(=O)N[C@@H](CC(C)C)C(=O)N[C@@H](CCCCN)C(=O)N[C@@H](CC(N)=O)C(=O)NCC(=O)NCC(=O)N1CCC[C@H]1C(=O)N[C@@H](CO)C(=O)N[C@@H](CO)C(=O)NCC(=O)N[C@@H](C)C(=O)N1CCC[C@H]1C(=O)N1CCC[C@H]1C(=O)N1CCC[C@H]1C(=O)N[C@@H](CO)C(N)=O
On to B3, for which, in experiment [1], the “EC50 hGlucagonR (cAMP formation)” value came out at 0.148 nM. Besides, the “EC50 hGLP-1R (cAMP formation)” value in experiment [2] amounted to 0.3 nM.
In the same order, the values of HSQGTFTSDLSKQMDSRRAQDFIEWLKNGGPSSGAPPPS-{NH‑(CH2)5‑OH} [SEQ ID NO: (50)] are 0.0225 nM and 0.014 nM.
For HSQGTFTSDLSKQMDSRRAQDFIEWLKNGGPSSGAPPPS-{NH‑CH2‑CH2‑S‑tBu} [SEQ ID NO: (36)] the same measures were 0.0458 nM and 0.0189 nM.

B4: SEQ ID NO: (37) (peptide)
peptide: H[dS]QGTFTSDLSKQMDSRRAQEFIEWLKNGGPSSGAPPPS-NH2
modifications: N-terminus assumed
SMILES: CC[C@H](C)[C@H](NC(=O)[C@H](Cc1ccccc1)NC(=O)[C@H](CCC(=O)O)NC(=O)[C@H](CCC(N)=O)NC(=O)[C@H](C)NC(=O)[C@H](CCCNC(=N)N)NC(=O)[C@H](CCCNC(=N)N)NC(=O)[C@H](CO)NC(=O)[C@H](CC(=O)O)NC(=O)[C@H](CCSC)NC(=O)[C@H](CCC(N)=O)NC(=O)[C@H](CCCCN)NC(=O)[C@H](CO)NC(=O)[C@H](CC(C)C)NC(=O)[C@H](CC(=O)O)NC(=O)[C@H](CO)NC(=O)[C@@H](NC(=O)[C@H](Cc1ccccc1)NC(=O)[C@@H](NC(=O)CNC(=O)[C@H](CCC(N)=O)NC(=O)[C@@H](CO)NC(=O)[C@@H](N)Cc1c[nH]cn1)[C@@H](C)O)[C@@H](C)O)C(=O)N[C@@H](CCC(=O)O)C(=O)N[C@@H](Cc1c[nH]c2ccccc12)C(=O)N[C@@H](CC(C)C)C(=O)N[C@@H](CCCCN)C(=O)N[C@@H](CC(N)=O)C(=O)NCC(=O)NCC(=O)N1CCC[C@H]1C(=O)N[C@@H](CO)C(=O)N[C@@H](CO)C(=O)NCC(=O)N[C@@H](C)C(=O)N1CCC[C@H]1C(=O)N1CCC[C@H]1C(=O)N1CCC[C@H]1C(=O)N[C@@H](CO)C(N)=O
In the case of B4, in experiment [1], the “EC50 hGlucagonR (cAMP formation)” value worked out at 0.0582 nM. Moreover, the “EC50 hGLP-1R (cAMP formation)” value in experiment [2] was 0.0759 nM.

B5: SEQ ID NO: (33) (peptide)
peptide: H[dS]QGTFTSDLSKQMDSRRAQDFIEWLKKGGPSSGEPPPS-NH2
modifications: N-terminus assumed
SMILES: CC[C@H](C)[C@H](NC(=O)[C@H](Cc1ccccc1)NC(=O)[C@H](CC(=O)O)NC(=O)[C@H](CCC(N)=O)NC(=O)[C@H](C)NC(=O)[C@H](CCCNC(=N)N)NC(=O)[C@H](CCCNC(=N)N)NC(=O)[C@H](CO)NC(=O)[C@H](CC(=O)O)NC(=O)[C@H](CCSC)NC(=O)[C@H](CCC(N)=O)NC(=O)[C@H](CCCCN)NC(=O)[C@H](CO)NC(=O)[C@H](CC(C)C)NC(=O)[C@H](CC(=O)O)NC(=O)[C@H](CO)NC(=O)[C@@H](NC(=O)[C@H](Cc1ccccc1)NC(=O)[C@@H](NC(=O)CNC(=O)[C@H](CCC(N)=O)NC(=O)[C@@H](CO)NC(=O)[C@@H](N)Cc1c[nH]cn1)[C@@H](C)O)[C@@H](C)O)C(=O)N[C@@H](CCC(=O)O)C(=O)N[C@@H](Cc1c[nH]c2ccccc12)C(=O)N[C@@H](CC(C)C)C(=O)N[C@@H](CCCCN)C(=O)N[C@@H](CCCCN)C(=O)NCC(=O)NCC(=O)N1CCC[C@H]1C(=O)N[C@@H](CO)C(=O)N[C@@H](CO)C(=O)NCC(=O)N[C@@H](CCC(=O)O)C(=O)N1CCC[C@H]1C(=O)N1CCC[C@H]1C(=O)N1CCC[C@H]1C(=O)N[C@@H](CO)C(N)=O
Take B5: in experiment [1], the “EC50 hGlucagonR (cAMP formation)” value was 0.347 nM. The “EC50 hGLP-1R (cAMP formation)” value in experiment [2] is 0.138 nM.
In the same order, the values of H[dA]QGTFTSDLSKQMDSRRAQDFIEWLKNGGPSSGAPPPS-NH2 [SEQ ID NO: (40)] are 1.18 nM and 0.0081 nM.
For HAQGTFTSDLSKQMDSRRAQDFIEWLKNGGPSSGAPPPS-NH2 [SEQ ID NO: (39)], in experiment [1], the “EC50 hGlucagonR (cAMP formation)” value worked out at 0.683 nM. Further, in experiment [2], the “EC50 hGLP-1R (cAMP formation)” value is 0.0046 nM.
On to HGQGTFTSDLSKQMDSRRAQDFIEWLKNGGPSSGAPPPS-NH2 [SEQ ID NO: (11)], for which the “EC50 hGlucagonR (cAMP formation)” value in experiment [1] was determined as 2.32 nM. In experiment [2], the “EC50 hGLP-1R (cAMP formation)” value was determined as 0.0254 nM.
As to HSQGTFTSDLSKQMDSRRAQDFIEWLKNGGPSSGAPPPS-Cysteamide [SEQ ID NO: (8)], the “EC50 hGlucagonR (cAMP formation)” value in experiment [1] amounted to 0.0351 nM. Moreover, the “EC50 hGLP-1R (cAMP formation)” value in experiment [2] stood at 0.0203 nM.
